FireProtDB (doi:10.1093/hmg/ddv370)
“And” between values parts separate entries of the source, which are not always exact repeats. Identical values can stand only once.

Settings: Homo sapiens; pH 7.5; Thermal; CD; Tris-HCl; KCl; transition: 2; whole UniProt chain shown

B1: Guanylyl cyclase-activating protein 1 wild type, P43080 (protein)
chain: MGNVMEGKSVEELSSTECHQWYKKFMTECPSGQLTLYEFRQFFGLKNLSPSASQYVEQMFETFDFNKDGYIDFMEYVAALSLVLKGKVEQKLRWYFKLYDVDGNGCIDRDELLTIIQAIRAINPCSDTTMTAEEFTDTVFSKIDVNGDGELSLEEFIEGVQKDQMLLDTLTRSLDLTRIVRRLQNGEQDEEGADEAAEAAG
  Tm: 50.1 °C and 51.5 °C
